Measured values as given in patent US20210253718A1, “FRIZZLED5 PROTEIN-BINDING AGENTS” (Modmab Therapeutics Corporation, priority 2016, published 2021).

T1: FZD10 CRD (Homo sapiens, UniProt Q9ULW2)
T1 construct: 30-156; GPI anchor signal (C); expressed in transfected cells; host or cells: CHO cells, lentiviral pLenti-puro
T1 sequence (Q9ULW2 30-156): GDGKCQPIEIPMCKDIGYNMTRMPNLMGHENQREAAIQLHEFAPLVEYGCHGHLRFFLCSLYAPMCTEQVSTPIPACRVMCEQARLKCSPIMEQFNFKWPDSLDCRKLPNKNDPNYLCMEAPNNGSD

T2: FZD6 CRD (Homo sapiens, UniProt O60353)
T2 construct: S20-P146; GPI anchor signal (C); expressed in transfected cells; host or cells: CHO cells, lentiviral pLenti-puro
T2 sequence (O60353 20-146): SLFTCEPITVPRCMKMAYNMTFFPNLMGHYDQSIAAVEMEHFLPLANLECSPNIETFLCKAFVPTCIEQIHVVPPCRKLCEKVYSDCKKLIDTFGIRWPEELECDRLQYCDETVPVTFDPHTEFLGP

T3: FZD8 CRD (Homo sapiens, UniProt Q9H461)
T3 construct: K31-D155; GPI anchor signal (C); expressed in transfected cells; host or cells: CHO cells, lentiviral pLenti-puro
T3 sequence (Q9H461 31-155): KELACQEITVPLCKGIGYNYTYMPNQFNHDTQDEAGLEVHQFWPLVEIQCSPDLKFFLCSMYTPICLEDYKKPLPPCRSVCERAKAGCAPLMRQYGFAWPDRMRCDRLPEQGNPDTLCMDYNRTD

T4: FZD9 CRD (Homo sapiens, UniProt O00144)
T4 construct: G35-A161; GPI anchor signal (C); expressed in transfected cells; host or cells: CHO cells, lentiviral pLenti-puro
T4 sequence (O00144 35-161): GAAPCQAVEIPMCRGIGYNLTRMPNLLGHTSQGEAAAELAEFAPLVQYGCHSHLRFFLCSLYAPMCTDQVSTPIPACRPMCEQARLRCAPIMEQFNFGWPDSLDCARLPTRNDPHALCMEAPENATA


Experiments:
FZD10 CRD = biological target: T1, FZD10 CRD; test: Immunofluorescence of anti-FZD5 Fab binding to CHO cells overexpressing Frizzled CRD; design: key: −: no binding; +: very weak binder; ++: weak binder; +++: good binder; ++++: very good binder
Outline: (§1)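 CHO cell lines each displaying a myc-tagged Frizzled CRD on the plasma membrane via GPI anchor. Recombinant anti-FZD5 Fab binding detected by immunofluorescence and flow cytometry.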

FZD2 CRD = biological target: T5, FZD2 CRD (Homo sapiens, UniProt Q14332); test: as above; design: key: −: no binding; +: very weak binder; ++: weak binder; +++: good binder; ++++: very good binder
T5 construct: D35-P161; GPI anchor signal (C); expressed in transfected cells; host or cells: CHO cells, lentiviral pLenti-puro
Outline: as §1

FZD6 CRD = biological target: T2, FZD6 CRD; test: as above; design: key: −: no binding; +: very weak binder; ++: weak binder; +++: good binder; ++++: very good binder
Outline: as §1

FZD8 CRD = biological target: T3, FZD8 CRD; test: as above; design: key: −: no binding; +: very weak binder; ++: weak binder; +++: good binder; ++++: very good binder
Outline: as §1

FZD9 CRD = biological target: T4, FZD9 CRD; test: as above; design: key: −: no binding; +: very weak binder; ++: weak binder; +++: good binder; ++++: very good binder
Outline: as §1

ASPC-1 cells [1] = test: Effect of anti-FZD5 Fabs on proliferation of pancreatic cancer cell lines (percent growth inhibition); assay type: cell-based, human; settings: Fab 10 μg/ml
Method: (§2) The effect of presently disclosed anti-FZD5 Fabs on proliferation of RNF43 loss-of-function mutant pancreatic cancer cell lines HPAFII, PATU8988S and ASPC-1; and on pancreatic cancer cell line RWP1, was tested at […] and 10 μg/ml.

HPAFII cells = test: as above; assay type: cell-based, human; settings: for percent growth inhibition, HPAFII 2 μg/ml: Fab 2 μg/ml; for percent growth inhibition, HPAFII 10 μg/ml: Fab 10 μg/ml
Method: as §2

PATU8988S cells [2] = test: as above; assay type: cell-based, human; settings: Fab 10 μg/ml
Method: as §2

RWP1 cells [3] = test: as above; assay type: cell-based, human; settings: Fab 10 μg/ml
Method: as §2

PATU8988S cells [4] = test: as above; assay type: cell-based, human; settings: Fab 2 μg/ml
ASPC-1 cells [5] = test: as above; assay type: cell-based, human; settings: Fab 2 μg/ml
RWP1 cells [6] = test: as above; assay type: cell-based, human; settings: Fab 2 μg/ml

Molecule	Immunofluorescence binding, Frizzled CRD overexpressed on CHO cells: FZD10 (FZD10 CRD)	Immunofluorescence binding, Frizzled CRD overexpressed on CHO cells: FZD2 (FZD2 CRD)	Immunofluorescence binding, Frizzled CRD overexpressed on CHO cells: FZD6 (FZD6 CRD)	Immunofluorescence binding, Frizzled CRD overexpressed on CHO cells: FZD8 (FZD8 CRD)	Immunofluorescence binding, Frizzled CRD overexpressed on CHO cells: FZD9 (FZD9 CRD)	percent growth inhibition, ASPC-1 10 μg/ml (ASPC-1 cells [1]) [%]	percent growth inhibition, HPAFII 2 μg/ml (HPAFII cells) [%]	percent growth inhibition, HPAFII 10 μg/ml (HPAFII cells) [%]	percent growth inhibition, PATU8988s 10 μg/ml (PATU8988S cells [2]) [%]	percent growth inhibition, RWP1 10 μg/ml (RWP1 cells [3]) [%]	percent growth inhibition, PATU8988s 2 μg/ml (PATU8988S cells [4]) [%]	percent growth inhibition, ASPC-1 2 μg/ml (ASPC-1 cells [5]) [%]	percent growth inhibition, RWP1 2 μg/ml (RWP1 cells [6]) [%]
Fab-2920: anti-FZD5 Fab with antibody variable region Fv-2920; CDR SEQ ID NOs: 35, 36, 59, 98, 135, 170 (antibody, V domains shown) VH: EVQLVESGGGLVQPGGSLRLSCAASGFNISYYYIHWVRQAPGKGLEWVASIYPSSGSTSYADSVKGRFTISADTSKNTAYLQMNSLRAEDTAVYYCARGGMDYWGQGTLVTVSS VL: DIQMTQSPSSLSASVGDRVTITCRASQSVSSAVAWYQQKPGKAPKLLIYSASSLYSGVPSRFSGSRSGTDFTLTISSLQPEDFATYYCQQWFAGALITFGQGTKVEIK	−	−	−	+	−	40.69	29.48	32.93	−5.60	−3.09	6.20	33.66	−16.26
Fab-2921: anti-FZD5 Fab with antibody variable region Fv-2921; CDR SEQ ID NOs: 35, 36, 60, 98, 136, 162 (antibody, V domains shown) VH: EVQLVESGGGLVQPGGSLRLSCAASGFNISYYYIHWVRQAPGKGLEWVASIYPSSGSTSYADSVKGRFTISADTSKNTAYLQMNSLRAEDTAVYYCARGAMDYWGQGTLVTVSS VL: DIQMTQSPSSLSASVGDRVTITCRASQSVSSAVAWYQQKPGKAPKLLIYSASSLYSGVPSRFSGSRSGTDFTLTISSLQPEDFATYYCQQWYAGSLITFGQGTKVEIK	−	−	−	+	−	47.95	30.70	44.23	−16.29	−0.10	−1.56	43.20	−4.47
Fab-2923: anti-FZD5 Fab with antibody variable region Fv-2923; CDR SEQ ID NOs: 35, 36, 62, 100, 138, 162 (antibody, V domains shown) VH: EVQLVESGGGLVQPGGSLRLSCAASGFNLYYYYMHWVRQAPGKGLEWVASIYSSSGSTSYADSVKGRFTISADTSKNTAYLQMNSLRAEDTAVYYCARGAMDYWGQGTLVTVSS VL: DIQMTQSPSSLSASVGDRVTITCRASQSVSSAVAWYQQKPGKAPKLLIYSASSLYSGVPSRFSGSRSGTDFTLTISSLQPEDFATYYCQQWYGYSALITFGQGTKVEIK	−	−	−	+	−	34.00	15.14	18.17	−19.05	40.29	−18.54	35.27	35.90
Fab-2924: anti-FZD5 Fab with antibody variable region Fv-2924; CDR SEQ ID NOs: 35, 36, 63, 101, 139, 153 (antibody, V domains shown) VH: EVQLVESGGGLVQPGGSLRLSCAASGFNISYSYIHWVRQAPGKGLEWVASIYSYYSSTSYADSVKGRFTISADTSKNTAYLQMNSLRAEDTAVYYCARGALDYWGQGTLVTVSS VL: DIQMTQSPSSLSASVGDRVTITCRASQSVSSAVAWYQQKPGKAPKLLIYSASSLYSGVPSRFSGSRSGTDFTLTISSLQPEDFATYYCQQWYSGHSLITFGQGTKVEIK	−	−	−	+	−	16.29	−10.43	−5.35	−21.08	48.95	−16.11	8.55	42.76
Fab-2922: anti-FZD5 Fab with antibody variable region Fv-2922; CDR SEQ ID NOs: 35, 36, 61, 99, 137, 171 (antibody, V domains shown) VH: EVQLVESGGGLVQPGGSLRLSCAASGFNIYSSYMHWVRQAPGKGLEWVASISPYSGYTSYADSVKGRFTISADTSKNTAYLQMNSLRAEDTAVYYCARTVRGSKKPYFSGWAMDYWGQGTLVTVSS VL: DIQMTQSPSSLSASVGDRVTITCRASQSVSSAVAWYQQKPGKAPKLLIYSASSLYSGVPSRFSGSRSGTDFTLTISSLQPEDFATYYCQQSFVYPYLITFGQGTKVEIK	−	−	−	+	−	27.72	8.28	8.14	−24.14	7.59	9.16	14.47	−6.96
